Biological target: The-05 (variant of the HFt-MP-PASE construct bearing the Lys53Glu, Lys71Glu, Thr135Glu and Lys143Glu mutations) (human)
Assay: SEC + other: dynamic light scattering + other: negative-stain TEM; empty The-05; Superose 6 in PBS pH 7.4; DLS at 25 °C, 1 mg/mL in diluted PBS (1:2); TEM 0.1 mg/mL, 2% uranyl acetate; assembly of the subunits into the cage

stoichiometry N: 24
Substance: The-05 (variant of the HFt-MP-PASE construct bearing the Lys53Glu, Lys71Glu, Thr135Glu and Lys143Glu mutations) (designed binder)

Source: PMC7589674
